{"source": "paper PMC5472405", "about": "“Epithelial chemokine CXCL14 synergizes with CXCL12 via allosteric modulation of CXCR4” (The FASEB Journal, 2017)", "binders": {"B1": {"name": "CXC chemokine receptor 4 (CXCR4) on lentiviral particles (receptor, UniProt P61073 1-352, looked up)", "chain": "MEGISIYTSDNYTEEMGSGDYDSMKEPCFREENANFNKIFLPTIYSIIFLTGIVGNGLVILVMGYQKKLRSMTDKYRLHLSVADLLFVITLPFWAVDAVANWYFGNFLCKAVHVIYTVNLYSSVLILAFISLDRYLAIVHATNSQRPRKLLAEKVVYVGVWIPALLLTIPDFIFANVSEADDRYICDRFYPNDLWVVVFQFQHIMVGLILPGIVILSCYCIIISKLSHSKGHQKRKALKTTVILILAFFACWLPYYIGISIDSFILLEIIKQGCEFENTVHKWISITEALAFFHCCLNPILYAFLGAKFKTSAQHALTSVSRGSSLKILSKGKRGGHSSVSTESESSSFHSS", "notes": "also called CXCR4-expressing LVPs"}}, "key": {"[1]": {"target": "B1", "experiment": "SPR; CXCR4 lentiviral particles (8000-8500 RU) immobilised on a CM5 chip; CXCL12 or CXCL14 12.5-200 nM injected in HBS (100 mM HEPES, 150 mM NaCl, 0.005% P20, pH 7.4), 30 ul/min, 25°C; reference: particles from CXCR4-negative cells or none; simple 1-site model; Biacore 3000", "conditions": "one partner purified"}, "[2]": {"target": "B1", "experiment": "cell-based or functional assay"}, "[3]": {"target": "T1, full-length CXCL12α, synthetic (human, UniProt P48061-2 22-89)", "T1 construct": "also called CXC chemokine ligand 12; source: chemically synthesized", "T1 sequence (P48061 22-89)": "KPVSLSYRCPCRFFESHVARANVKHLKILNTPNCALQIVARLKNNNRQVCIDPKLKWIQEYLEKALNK", "experiment": "SPR; CXCR4 lentiviral particles (8000-8500 RU) immobilised on a CM5 chip; CXCL12 or CXCL14 12.5-200 nM injected in HBS (100 mM HEPES, 150 mM NaCl, 0.005% P20, pH 7.4), 30 ul/min, 25°C; reference: particles from CXCR4-negative cells or none; simple 1-site model; Biacore 3000", "conditions": "one partner purified"}}}
{"binder": "CXC chemokine ligand 14 (CXCL14), synthetic (ligand, human, UniProt O95715 35-111, looked up, source: chemically synthesized) SKCKCSRKGPKIRYSDVKKLEMKPKYPHCEEKMVIITTKSVSRYRGQEHCLHPKLQSTKRFIKWYNAWNEKRRVYEE", "values": [{"measurement": "Kd", "setting": "[1]", "result": 8, "unit": "nM"}, {"measurement": "koff", "setting": "[1]", "result": 0.00317, "unit": "s⁻¹"}, {"measurement": "kon", "setting": "[1]", "result": 396000, "unit": "M⁻¹ s⁻¹"}, {"measurement": "entry of R5-tropic HIV-1 (pR8Bal) into TZM-bl cells (luciferase reporter), 0-1000 nM CXCL14", "setting": "[2]", "result": "> 3", "unit": "fold"}, {"measurement": "entry of X4 HIV-1 (pNL4.3) into TZM-bl cells (luciferase reporter), 10-1000 nM CXCL14 alone", "setting": "[2]", "result": "> 3", "unit": "fold"}]}
{"binder": "B1", "values": [{"measurement": "Kd", "setting": "[3]", "result": 35, "unit": "nM"}, {"measurement": "koff", "setting": "[3]", "result": 0.00428, "unit": "s⁻¹"}, {"measurement": "kon", "setting": "[3]", "result": 122000, "unit": "M⁻¹ s⁻¹"}]}
